The supplement of paper PMC11865577

Experiments:
Assay in all cases: pull-down binding Z-score (relative to library population); higher = stronger binding
[1] = system: G-clamp-N3 (biotin conjugate); details: RNA library: Library-1 (pre-miRNA loops + repeats)
Summary of the method: (§1)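 An RNA library (1 μg) carrying a Cy5 or Cy3 end label was heat-folded in phosphate/NaCl/KCl buffer, then incubated for 60 min at 25 °C with streptavidin beads loaded with 100 pmol of biotin-conjugated small molecule. The beads were washed three times, and bound RNA was released in hot SDS and hybridised to a DNA barcode microarray for 20 h at 55.5 °C. Each binding score was derived by subtracting the signal from beads without compound, averaging the barcoded replicate probes after removing the highest and lowest, and expressing the result as a Z-score relative to the library mean and standard deviation.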

[2] = system: TO-3-N3 (biotin conjugate); details: RNA library: Library-2
Summary of the method: as §1

[3] = system: TO-3-N3-2 (biotin conjugate); details: RNA library: Library-2
Summary of the method: as §1

TO-N3 (biotin conjugate) = details: RNA library: Library-2
Summary of the method: as §1

[4] = system: TO-N3-2 (biotin conjugate); details: RNA library: Library-2
Summary of the method: as §1

UGCUGGUGCUAGAGAGGAAAGCA [hsa-mir-4748]
pull-down binding Z-score [1]: 1 | pull-down binding Z-score [2]: 0.426 | pull-down binding Z-score [3]: 0.315 | pull-down binding Z-score (TO-N3 (biotin conjugate)): 0.985 | pull-down binding Z-score [4]: 2.22

GCAUGGGGCUAGGAGGCCCCGCGC [hsa-mir-6825]
pull-down binding Z-score [1]: -0.292 | pull-down binding Z-score [2]: 0.451 | pull-down binding Z-score [3]: 0.00553 | pull-down binding Z-score (TO-N3 (biotin conjugate)): 0.391 | pull-down binding Z-score [4]: 0.142

GACGUGAAGGGACCACAUCCCGCUUCAUGUC [hsa-mir-4697]
pull-down binding Z-score [1]: -0.0598 | pull-down binding Z-score [2]: 0.541 | pull-down binding Z-score [3]: -0.362 | pull-down binding Z-score (TO-N3 (biotin conjugate)): 0.374 | pull-down binding Z-score [4]: 0.229

GGAGCAGACAGACCCAACCUCAUGCUCC [hsa-mir-6763]
pull-down binding Z-score [1]: -0.993 | pull-down binding Z-score [2]: 0.0429 | pull-down binding Z-score [3]: -0.471 | pull-down binding Z-score (TO-N3 (biotin conjugate)): 0.219 | pull-down binding Z-score [4]: 0.247

GAAGGGAAGCUGGGAACCUGACUGCCUC [hsa-mir-6867]
pull-down binding Z-score [1]: -0.151 | pull-down binding Z-score [2]: 0.688 | pull-down binding Z-score [3]: 0.402 | pull-down binding Z-score (TO-N3 (biotin conjugate)): 0.961 | pull-down binding Z-score [4]: 1.66

CUUUGUGAUUUUAUGAGAACAAAG [hsa-mir-3173]
pull-down binding Z-score [1]: 0.801 | pull-down binding Z-score [2]: -0.938 | pull-down binding Z-score [3]: -0.486 | pull-down binding Z-score (TO-N3 (biotin conjugate)): -1.22 | pull-down binding Z-score [4]: -1.27

GUUUACGUGAUUCCUGGUUAAUC [hsa-mir-376b]
pull-down binding Z-score [1]: 0.375 | pull-down binding Z-score [2]: -0.121 | pull-down binding Z-score [3]: -0.0636 | pull-down binding Z-score (TO-N3 (biotin conjugate)): -0.0962 | pull-down binding Z-score [4]: -0.0759

CAGGAUUAGUGCUUAUGCUAAGAUGUCUUCACUG [hsa-mir-6773]
pull-down binding Z-score [1]: 0.887 | pull-down binding Z-score [2]: -0.824 | pull-down binding Z-score [3]: -0.269 | pull-down binding Z-score (TO-N3 (biotin conjugate)): -0.75 | pull-down binding Z-score [4]: -0.301

AGUUGGACACUCCAUGUGGUAGAGUGUC [hsa-mir-223]
pull-down binding Z-score [1]: 0.453 | pull-down binding Z-score [2]: 0.617 | pull-down binding Z-score [3]: -0.0653 | pull-down binding Z-score (TO-N3 (biotin conjugate)): 0.563 | pull-down binding Z-score [4]: 0.0461

GGGGUUUUUGCCUCCAACUGACUCC [hsa-mir-155]
pull-down binding Z-score [1]: -0.504 | pull-down binding Z-score [2]: -0.366 | pull-down binding Z-score [3]: -0.283 | pull-down binding Z-score (TO-N3 (biotin conjugate)): -0.292 | pull-down binding Z-score [4]: -0.135

GCUUUAUGUCCUGACCCAGCUAAAGC [hsa-mir-22]
pull-down binding Z-score [1]: -0.155 | pull-down binding Z-score [2]: 0.3 | pull-down binding Z-score [3]: -0.246 | pull-down binding Z-score (TO-N3 (biotin conjugate)): 0.112 | pull-down binding Z-score [4]: -0.0465

GGGUCAGUGGCAGAGCCAGGCAGAUGCUGACCC [hsa-mir-6832]
pull-down binding Z-score [1]: 2.93 | pull-down binding Z-score [2]: 0.349 | pull-down binding Z-score [3]: 0.267 | pull-down binding Z-score (TO-N3 (biotin conjugate)): 0.45 | pull-down binding Z-score [4]: 0.72

UAGGGCGCGGAGGGCGGACCGGGAA [hsa-mir-638]
pull-down binding Z-score [1]: 0.973 | pull-down binding Z-score [2]: 5.36 | pull-down binding Z-score [3]: 6.57 | pull-down binding Z-score (TO-N3 (biotin conjugate)): 5.19 | pull-down binding Z-score [4]: 4.4

AAAAUUACUUUUGGUAAAUACAGUUUU [hsa-mir-559]
pull-down binding Z-score [1]: -0.546 | pull-down binding Z-score [2]: -0.101 | pull-down binding Z-score [3]: 0.00825 | pull-down binding Z-score (TO-N3 (biotin conjugate)): -0.344 | pull-down binding Z-score [4]: -1.04

CAGUGUUAGCUCCAGAAGCAUUG [hsa-mir-3170]
pull-down binding Z-score [1]: 1.14 | pull-down binding Z-score [2]: 0.0378 | pull-down binding Z-score [3]: -0.107 | pull-down binding Z-score (TO-N3 (biotin conjugate)): 0.171 | pull-down binding Z-score [4]: 0.644

GAGUUUGGAGUCGGUGGGUGGAGCCAAACUG [hsa-mir-6860]
pull-down binding Z-score [1]: 2.37 | pull-down binding Z-score [2]: 1.13 | pull-down binding Z-score [3]: 0.706 | pull-down binding Z-score (TO-N3 (biotin conjugate)): 1.5 | pull-down binding Z-score [4]: 1.52

ACUACUAUAGGCCGCUGGGAAGCAGU [hsa-mir-130b]
pull-down binding Z-score [1]: 0.987 | pull-down binding Z-score [2]: 1.04 | pull-down binding Z-score [3]: 0.542 | pull-down binding Z-score (TO-N3 (biotin conjugate)): 1.13 | pull-down binding Z-score [4]: 0.667

AUGGUGUUUGUGAGUUGAUUGACAUCGU [hsa-mir-6506]
pull-down binding Z-score [1]: -0.212 | pull-down binding Z-score [2]: -0.398 | pull-down binding Z-score [3]: -0.457 | pull-down binding Z-score (TO-N3 (biotin conjugate)): -0.408 | pull-down binding Z-score [4]: 0.0463

UUGAGAACCAG [hsa-mir-4328]
pull-down binding Z-score [1]: -0.606 | pull-down binding Z-score [2]: 1.74 | pull-down binding Z-score [3]: 0.215 | pull-down binding Z-score (TO-N3 (biotin conjugate)): 1.79 | pull-down binding Z-score [4]: 1.04

CUUUUUGCUGAUGGAGGGUCUUGCCUCCAUGGGGAUGGCUG [hsa-mir-4502]
pull-down binding Z-score [1]: 1 | pull-down binding Z-score [2]: 0.828 | pull-down binding Z-score [3]: 0.159 | pull-down binding Z-score (TO-N3 (biotin conjugate)): 0.938 | pull-down binding Z-score [4]: 0.571

GCAGCCUUCUGCCUUUGGCUUUCUGAAGCGAGCUGA [hsa-mir-7158]
pull-down binding Z-score [1]: -0.699 | pull-down binding Z-score [2]: 0.327 | pull-down binding Z-score [3]: 0.292 | pull-down binding Z-score (TO-N3 (biotin conjugate)): 0.769 | pull-down binding Z-score [4]: 1.09

UUCUGCUGAAGACUGGUCUCUUCAUGUGUGAG [hsa-mir-6133]
pull-down binding Z-score [1]: -0.872 | pull-down binding Z-score [2]: -0.389 | pull-down binding Z-score [3]: -0.0941 | pull-down binding Z-score (TO-N3 (biotin conjugate)): -0.371 | pull-down binding Z-score [4]: 0.00769

UUUUUCCAUUGUAAGUAAUGGGAAAA [hsa-mir-548f-5]
pull-down binding Z-score [1]: 0.457 | pull-down binding Z-score [2]: -0.644 | pull-down binding Z-score [3]: -0.567 | pull-down binding Z-score (TO-N3 (biotin conjugate)): -0.991 | pull-down binding Z-score [4]: -1.67

CUCCUCCGCUGCCGCCGGGAGAG [hsa-mir-4785]
pull-down binding Z-score [1]: 0.0193 | pull-down binding Z-score [2]: -0.584 | pull-down binding Z-score [3]: -0.327 | pull-down binding Z-score (TO-N3 (biotin conjugate)): -0.794 | pull-down binding Z-score [4]: 0.0312

UGGAGGCUGACCUCUUACUUUCGGUCGGUCUUCUU [hsa-mir-4258]
pull-down binding Z-score [1]: -1.13 | pull-down binding Z-score [2]: -0.176 | pull-down binding Z-score [3]: -0.43 | pull-down binding Z-score (TO-N3 (biotin conjugate)): -0.486 | pull-down binding Z-score [4]: -0.435

AGAGCACCUCCUAGAGAAUGUUGAACUAAAGGUGCCC [hsa-mir-4723]
pull-down binding Z-score [1]: -0.814 | pull-down binding Z-score [2]: 0.573 | pull-down binding Z-score [3]: 0.528 | pull-down binding Z-score (TO-N3 (biotin conjugate)): 0.813 | pull-down binding Z-score [4]: 1.16

UUUUCAUGACAACCCUAUAUGGGAAAAUGUUGUGAAAA [hsa-mir-3646]
pull-down binding Z-score [1]: -0.346 | pull-down binding Z-score [2]: -0.839 | pull-down binding Z-score [3]: -0.448 | pull-down binding Z-score (TO-N3 (biotin conjugate)): -1.1 | pull-down binding Z-score [4]: -1.78

UUUUGCAGUUUUUUUAAGUAAUUGCAAAA [hsa-mir-548f-3]
pull-down binding Z-score [1]: 0.0351 | pull-down binding Z-score [2]: -0.492 | pull-down binding Z-score [3]: -0.385 | pull-down binding Z-score (TO-N3 (biotin conjugate)): -0.812 | pull-down binding Z-score [4]: -0.904

CCCUGCCCAGUGCAGGAG [hsa-mir-6069]
pull-down binding Z-score [1]: 0.386 | pull-down binding Z-score [2]: -0.42 | pull-down binding Z-score [3]: -0.478 | pull-down binding Z-score (TO-N3 (biotin conjugate)): -0.817 | pull-down binding Z-score [4]: -0.914

CAUUUGUGGCAUGGACCAUUUGUG [hsa-mir-4504]
pull-down binding Z-score [1]: -0.183 | pull-down binding Z-score [2]: -0.874 | pull-down binding Z-score [3]: -0.518 | pull-down binding Z-score (TO-N3 (biotin conjugate)): -0.959 | pull-down binding Z-score [4]: -0.813

UGCUGUUGCUGUGAAAGCUGA [hsa-mir-6823]
pull-down binding Z-score [1]: -0.619 | pull-down binding Z-score [2]: 0.045 | pull-down binding Z-score [3]: 0.304 | pull-down binding Z-score (TO-N3 (biotin conjugate)): 0.559 | pull-down binding Z-score [4]: 0.705

UCUUCUUGGAGUCAGGAAAA [hsa-mir-320d-2]
pull-down binding Z-score [1]: -0.411 | pull-down binding Z-score [2]: -0.553 | pull-down binding Z-score [3]: -0.458 | pull-down binding Z-score (TO-N3 (biotin conjugate)): -0.663 | pull-down binding Z-score [4]: -0.514

UGGCAAAGACAUAGAUUGUUUAGCUACCCCUUUGCCA [hsa-mir-3119-2]
pull-down binding Z-score [1]: 0.167 | pull-down binding Z-score [2]: -0.516 | pull-down binding Z-score [3]: -0.495 | pull-down binding Z-score (TO-N3 (biotin conjugate)): -0.809 | pull-down binding Z-score [4]: -0.58

UUGUUGUUAUUACU [hsa-mir-378d-1]
pull-down binding Z-score [1]: -0.945 | pull-down binding Z-score [2]: -0.148 | pull-down binding Z-score [3]: -0.259 | pull-down binding Z-score (TO-N3 (biotin conjugate)): -0.378 | pull-down binding Z-score [4]: -0.877

UUGAUGUCAGGUUAUCCCCAAGCAUAACCUCAC [hsa-mir-4639]
pull-down binding Z-score [1]: -1.21 | pull-down binding Z-score [2]: -0.576 | pull-down binding Z-score [3]: -0.186 | pull-down binding Z-score (TO-N3 (biotin conjugate)): -0.499 | pull-down binding Z-score [4]: -0.0627

CGUUCGCUUUAUUUAUGGCGCACA [hsa-mir-323a]
pull-down binding Z-score [1]: -0.817 | pull-down binding Z-score [2]: -0.155 | pull-down binding Z-score [3]: -0.271 | pull-down binding Z-score (TO-N3 (biotin conjugate)): -0.267 | pull-down binding Z-score [4]: 0.118

UUUUGCCAUUAAAAGUAAUGACAAAA [hsa-mir-548f-4]
pull-down binding Z-score [1]: -0.841 | pull-down binding Z-score [2]: -0.924 | pull-down binding Z-score [3]: -0.56 | pull-down binding Z-score (TO-N3 (biotin conjugate)): -1.47 | pull-down binding Z-score [4]: -1.66
